Data from publication PMC10881965, “Structural optimization of siRNA conjugates for albumin binding achieves effective MCL1-directed cancer therapy”.

B1: si<(EG18L)2 (dsRNA)
RNA 1: CAAUUGCACUGAUAAUGAA
RNA 2: UUCAUUAUCAGUGCAAUUG
modifications: 2'-F/2'-OMe, PS; 5' sense divalent stearyl, 18 EG per arm, proximal branch
B2: si<(EG30L)2 (dsRNA)
RNA 1: CAAUUGCACUGAUAAUGAA
RNA 2: UUCAUUAUCAGUGCAAUUG
modifications: 2'-F/2'-OMe, PS; 5' sense divalent stearyl, 30 EG per arm

Target: human serum albumin (Homo sapiens, UniProt P02768 25-609)
Experiment: BLI; EMSA: 0.1 nmol siRNA conjugate, 5x molar excess albumin, 30 min at 37 C, 4-20% TGX gel; BLI: albumin 400 nM (or varied), buffer not in material

Sequence of human serum albumin (P02768 25-609): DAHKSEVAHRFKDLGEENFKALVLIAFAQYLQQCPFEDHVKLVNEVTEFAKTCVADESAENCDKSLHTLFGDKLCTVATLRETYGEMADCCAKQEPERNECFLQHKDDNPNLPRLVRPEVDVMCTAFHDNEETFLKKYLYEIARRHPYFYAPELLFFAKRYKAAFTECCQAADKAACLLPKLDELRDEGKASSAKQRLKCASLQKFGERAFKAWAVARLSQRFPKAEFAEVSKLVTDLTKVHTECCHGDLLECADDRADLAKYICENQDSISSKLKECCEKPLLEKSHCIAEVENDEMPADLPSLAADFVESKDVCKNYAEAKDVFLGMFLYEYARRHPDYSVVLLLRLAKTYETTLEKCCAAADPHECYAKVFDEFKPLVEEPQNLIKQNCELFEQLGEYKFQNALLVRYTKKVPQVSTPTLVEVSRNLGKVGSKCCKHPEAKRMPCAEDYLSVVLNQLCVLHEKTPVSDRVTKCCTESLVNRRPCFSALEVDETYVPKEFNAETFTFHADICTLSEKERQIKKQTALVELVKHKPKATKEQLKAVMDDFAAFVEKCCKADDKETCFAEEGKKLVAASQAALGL

Binder	Kd [nM]
B1	30 ± 0.3
B2	9.49 ± 0.1
